Here are results for three molecules from patent US20240299493A1 (ACCELERON PHARMA, published 2024).

The target of test [1] is T1, GDF11 (UniProt O95390 299-407).
T1 sequence (looked up): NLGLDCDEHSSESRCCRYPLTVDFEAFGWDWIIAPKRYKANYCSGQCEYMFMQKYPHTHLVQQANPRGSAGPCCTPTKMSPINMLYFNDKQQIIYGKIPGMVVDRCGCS
The test is described as follows: cell-based or functional assay.

Test [2] has as its target T2, activin A (UniProt P08476 311-426).
T2 construct: also called ActA
T2 sequence (looked up): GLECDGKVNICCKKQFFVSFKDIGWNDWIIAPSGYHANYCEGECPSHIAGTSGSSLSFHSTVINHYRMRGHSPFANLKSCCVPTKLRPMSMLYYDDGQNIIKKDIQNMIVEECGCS
The test is described as follows: cell-based or functional assay.

Test [3] concerns the target T1, GDF11. Nature of the test: Biacore; Fc fusion captured by anti-hFc antibody, ligand flowed. How it is done: (§1) Binding of certain ActRIIB-Fc proteins and ActRIIB variant Fc fusion polypeptides to ligands was tested in a Biacore™ assay.
(§2) The ActRIIB-Fc variants or wild-type protein were captured onto the system using an anti-hFc antibody. Ligands were injected and flowed over the captured receptor proteins.

Test [4] concerns the target T2, activin A. The test is described as above. The method, then: as §1, §2
Test [5] addresses T3, GDF8 (UniProt O14793 267-375).
T3 construct: also called myostatin
T3 sequence (looked up): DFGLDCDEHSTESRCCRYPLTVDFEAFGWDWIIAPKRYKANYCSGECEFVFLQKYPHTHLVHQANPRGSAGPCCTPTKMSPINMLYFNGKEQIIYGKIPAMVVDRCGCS
Described as above. How it is done: as §1, §2

ActRIIB-Fc A64 20-134 (Fc fusion) gave a GDF11 Inhibition Activity (KI) in test [1] of 1000 nM. In test [2], this molecule yielded an Activin Inhibition Activity (KI) of 1000 nM.

B1: ActRIIB(A24N 20-134)-hFc (Fc fusion)
chain: GRGENETRECIYYNANWELERTNQSGLERCEGEQDKRLHCYASWRNSSGTIELVKKGCWLDDFNCYDRQECVATEENPQVYFCCCEGNFCNERFTHLPEAGGPEVTYEPPPTAPTGGGTHTCPPCPAPELLGGPSVFLFPPKPKDTLMISRTPEVTCVVVDVSHEDPEVKFNWYVDGVEVHNAKTKPREEQYNSTYRVVSVLTVLHQDWLNGKEYKCKVSNKALPVPIEKTISKAKGQPREPQVYTLPPSREEMTKNQVSLTCLVKGFYPSDIAVEWESNGQPENNYKTTPPVLDSDGSFFLYSKLTVDKSRWQQGNVFSCSVMHEALHNHYTQKSLSLSPGK
modifications: A24N creates an N-linked glycosylation sequence (N-E-T), paragraph 96
notes: also called A24N variant
In the case of B1, in test [3], binding was put at a Kd of 0.0519 nM and the koff (in general, the rate constant with which the complex falls apart) was 6.35e-05 s⁻¹. Besides, in test [4], the affinity, expressed as Kd, was 0.104 nM; the koff is 0.000346 s⁻¹; the kon (usually a measure of how fast the partners come together) came to 3.34e+06 M⁻¹ s⁻¹.

B2: ActRIIB(R64K 20-129)-hFc (Fc fusion)
chain: GRGEAETRECIYYNANWELERTNQSGLERCEGEQDKRLHCYASWKNSSGTIELVKKGCWLDDFNCYDRQECVATEENPQVYFCCCEGNFCNERFTHLPEAGGPEVTYEPPTGGGTHTCPPCPAPELLGGPSVFLFPPKPKDTLMISRTPEVTCVVVDVSHEDPEVKFNWYVDGVEVHNAKTKPREEQYNSTYRVVSVLTVLHQDWLNGKEYKCKVSNKALPVPIEKTISKAKGQPREPQVYTLPPSREEMTKNQVSLTCLVKGFYPSDIAVEWESNGQPENNYKTTPPVLDSDGSFFLYSKLTVDKSRWQQGNVFSCSVMHEALHNHYTQKSLSLSPGK
In the case of B2, in test [5], binding was characterised by a dissociation constant (Kd) of 2.15 nM and the koff was 0.000209 s⁻¹. Also, in test [4], binding was characterised by a dissociation constant (Kd) of 0.0841 nM, the koff came out at 0.000628 s⁻¹ and the kon turned out to be 7.46e+06 M⁻¹ s⁻¹.
